Assay results: the supplement of paper PMC9170038

test system: MS2 coat protein; test: apparent KD of MS2 coat protein, switch ON state; designed switch direction (-1 OFF switch, 1 ON switch): 1; higher = weaker reporter binding; conditions: FMN input: 0 or 200 uM; Eterna round: R93 (includes R88 designs)
Method in brief: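 For every design, apparent KD is the median of normalised binding-curve fits from its clusters. The RNA switches were transcribed on-chip from Illumina sequencing clusters and titrated with SNAP-549-labelled MS2 coat protein (twofold steps, 0.7 or 1.5 nM to 3 µM; 0.8–1.5 h to 10–20 min per step). Titrations used 100 mM Tris-HCl pH 7.5, 80 mM KCl, 4 mM MgCl2, without or with constant ligand.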

Sequence | apparent KD of MS2 coat protein
AAUAUAUUAUUUAAGGAUAUCAUAGGAAACACAUGAGGAUCACCCAUGUGGGAGACUUGGACGGGUGAGAAGGUGGAUAAUAUAU [Samwise Clockwise 37 - Jieux - Same State 2] | 19.2 nM
AGGCAACAUGAGGAUCACCCAUGUCGCAACAAUCAAGGAUAUGGGAGAAAUAAGAAAAUACCAGAAGGUGAAAUAA [Telelabe] | 60.7 nM
GAAAAACAUGAGGAUCACCCAUGUAGAGAUAUGGGAGGAUAUACGAAGACGAAAGUCGAGGUAGAAGGCCUAAAAG [Garnet 56] | 27.7 nM
AGGAAACAUGAGGAUCACCCAUGUAAAAAUAUGGGAGGAUAUGCGAAAAGAAACAAAGAAGCAGAAGGCCUAAGAA [75%, Ex5 sub 1, 7] | 11.9 nM
AAAAAACAUGAGGAUCACCCAUGUAAUAAAACGUCAGGAUAUUGAUUUUAUUAUUUAUUGCAAGAAGGGACAAAAA [Same State 1 - Omei 2] | 20.4 nM
AAGAAACAUGAGGAUCACCCAUGUAAAAUAAACACAGGAUAUGCGAAAAGAAACAAAGAAGCAGAAGGGUGAAGAA [Mat - Same State 1 - Tesla mod - 56] | 16.9 nM
GGAAAUAAAAGAGAGGAUAUCCAAAAGGAAACAUGAGGAUCACCCAUGUAAAAGAAAGGAAAAUGGGAGAAGGCUCAAAAUAAAG [salish99-ss2-004] | 44.2 nM
GAACCACAUGAGGAUCACCCAUGUCUAAGAAUGGGAGGAUAUGCACAAAAGGAAAUAACUGCAGAAGGCCUACGAA [62%, Redo, 2] | 23.2 nM
AAAGAAAAACUAGAGGAUAUCCGAGUGGUAACAUGAGGAUCACCCAUGUGAAGAAAGGAGCGUGAGGAGAAGGCUAGAAGAAAAA [JL Nando mod 24] | 11 nM
AAAAACAUAGUUCAGGAUAUGGUAAUAGUCACAUGAGGAUCACCCAUGUUCAUUUAUAUGAGCGAUCAGAAGGGAGGUAAAAAAA [Mat - Same state - Malcolm Mod - D115] | 124 nM
AAGAAACAUGAGGAUCACCCAUGUAAGAUAAACACAGGAUAUGCGAAAGAAAUAAAUAAAGCAGAAGGGUGAAGAA [Mat - Same State 1 - Tesla mod - D148] | 22.4 nM
CCUAGACAUGAGGAUCACCCAUGUCGAACAAACAAAGGAUAUGGGAGCCGAAGAAGGCUAUUAGAAGGUUGCAAAU [Aisedbi] | 29.4 nM
AAAUAAAGGACUGAGGAUAUACCACAUGAAACAUGAGGAUCACCCAUGUUGAAAAACAAAGGGUGGUAGAAGGUAGUCCACAAAC [Same State 2.5a ( so lets mod hyphema)] | 17.2 nM
AAGAAACAUGAGGAUCACCCAUGUAAGAUAAACACAGGAUAUGCGAAAAGAACAAAAGAAGCAGAAGGGUGAAGAA [Mat - Same State 1 - Tesla mod - D145] | 25.4 nM
UAAAAACAUGAGGAUCACCCAUGUGAGAACAUGGGAGGAUAUACAAGGACGAAAGUCAAAGUAGAAGGCCUAAAAU [Mat - Same State 1 - Mod - D176] | 99.8 nM
GGAAGACAUGAGGAUCACCCAUGUGGGAAUAUGGGAGGAUAUACAAAGACGAGAGUCAGAGUAGAAGGCCUAGGAA [salish99-ss1-99] | 37.8 nM
UGAAAACAUGAGGAUCACCCAUGUCUAGGAAAUCAAGGAUAUGGGCCGGCAAUAGGCGGGCCAGAAGGUGAGAAAU [Arisati] | 88.7 nM
AUAAAACAUGAGGAUCACCCAUGUAGAAAUAUGGGAGGAUAUACUAGAUCGAAAGAUCUAGUAGAAGGCCUUAAAG [JL Mod of Eli 3] | 31.7 nM
GAAAAACAUGAGGAUCACCCAUGUAGAAAUAUGGGAGGAUAUACAAAGACGAAAGUCAAAGUAGAAGGCCCAAAAG [Starry Same State 1.1 (mat747 round 1 mod)] | 24.1 nM
AAAAAACAUGAGGAUCACCCAUGUGCAAAAUUCGCAGGAUAUUCUUCUCUUAAAUGAGAGGGAGAAGGGUGUAAAA [Nob's Hobby 24 - Jieux - Same State 1] | 18.2 nM
AAAAAACAUGAGGAUCACCCAUGUGAGAACAUGGGAGGAUAUACGAGGACGAGAGUCAUAGUAGAAGGCCUAAAAA [Garnet 67] | 109 nM
GAAAAACAUGAGGAUCACCCAUGUGGAAAUAUGGGAGGAUAUACAAAGACGUAAGUCAAAGUAGAAGGCCUAAAAG [Garnet 94] | 30.8 nM

Sequence | apparent KD of MS2 coat protein
AUCUAACAUGAGGAUCACCCAUGUAUUCAAAAACAAGGAUAUAUAACAAACAAACAACAAAUAGAAGGUGUAAAUA [Default title] | 19 nM
GGAUACAUACAGAAGGAUAUGAGAACAAAGACAUGAGGAUCACCCAUGUACAAAAGGUGGAACAAUCAGAAGGUCUAAACAACAAA [Club and Ball] | 57.6 nM
AGGAGACAUGAGGAUCACCCAUGUGAGAAGAGGCGAGGAUAUCGAAAAAAAAAAAAAAAACGAGAAGGCGCGAGAA [salish99-SS1-002] | 35.4 nM
AUAUAUAUAAGACAGGAUAUCCGAAAGUAAACAUGAGGAUCACCCAUGUAAAGAAAGAAACUCAUGGAGAAGGGUCAAUAUAUAU [Mat - Same State 2 - Tesla mod - D84] | 22.4 nM
AUAAAUAAAAUCGAGGAUAUCCAAUAAUAAACAUGAGGAUCACCCAUGUAAAAGAAAAUAUAAUGGGAGAAGGCGAAUAAUAAAU [JR_SS002_Sub1701] | 16.3 nM
AUAGGGACGUCGGAGGAUAUUCGAUGUAAAACAUGAGGAUCACCCAUGUGAAUAAAAUAAACAUGGAAGAAGGCCGACGUGCCAU [SS 2 M 54] | 10.3 nM
UUAAGCCGCGGGCAGGAUAUGUAUUAAAAUACAUGAGGAUCACCCAUGUGCAGGUGUAACACCUGACAGAAGGGCCAAUCGCAGC [Ceanreerqu] | 26.4 nM
AAAAGACAUGAGGAUCACCCAUGUCAAAACGUAGGAGGAUAUGUCGUGAAAAAAGACUUGGCAGAAGGCCUGUGUC [SS1 - 42] | 15.4 nM
GGAACACAUGAGGAUCACCCAUGUCAAGGAGGUCGAGGAUAUAGGAAAAAAAAAAAAAAAUUAGAAGGUGAGGAGG [V1] | 169 nM
UGAUUGAGAUUGUAGGAUAUUGGAAAAGCCACAUGAGGAUCACCCAUGUCAAAAAAAAAAAAAAACAAGAAGGGCGGUUUUAGUUA [Same State 2] | 58.4 nM
AGGAGACAUGAGGAUCACCCAUGUGAGAAGAGGCGAGGAUAUCGAAAAAAAAAAAAAAAACGAGAAGGCGCGAGAA [SameState1] | 35.4 nM
AUAAAAACGUAUGAGGAUAUCCAAAAUAAAACAUGAGGAUCACCCAUGUGAAUAAAAUAACAAUGGGAGAAGGCAUACGUAUCAU [SS 2 M 53] | 12.5 nM
AGAAGACAUGAGGAUCACCCAUGUGGGAAUAUGGGAGGAUAUACAAAGACGAGAGUCAGAGUAGAAGGCCUAGGAA [salish99-SS1-091(!)] | 33 nM
AAAAAAAAAAGCUAGGAUAUCCAAAAAAAAACAUGAGGAUCACCCAUGUAAAAAAAAAAAAAAUGGGAGAAGGAGCAAAAAAAAAA [Mod of Eli] | 28.5 nM
AUAUAUAUAAGGUAGGAUAUCCAAAAGUCCACAUGAGGAUCACCCAUGUAAAGAAAGAAAAAAUGGGAGAAGGACCAUAUAUAUA [77%, More Tesla, 5] | 18.7 nM
AGAAAUAAAAGAGAGGAUAUCCAAAAGAAAACAUGAGGAUCACCCAUGUAGACGAAAGUCAAAUGGGAGAAGGCUCAAAAUAAAG [80% More Helter Skelter 2 + Hairpin] | 61.4 nM
AAAAAACAUGAGGAUCACCCAUGUAAUAAAACGUCAGGAUAUUGAUUUUAUUAUUUAUUGCGAGAAGGGACAAAAA [Same State 1 - Omei 3] | 20.2 nM
GCGAAUAUGGGUUAGGAUAUGCGCGCAUGUACAUGAGGAUCACCCAUGUUUACGGGCGCCUUUGAGCAGAAGGAGCUAAUCAACGC [SameState2Try2_Neo] | 21.5 nM
AAAUAAAUGACUAAGGAUAUCUCUGAGAAAACAUGAGGAUCACCCAUGUAAUAAUAAAAAGGGUGAGAGAAGGUAGUCAACAAAC [Same State 2.1 (Pariah 4 -changed stack on 9nt hairpin)] | 18 nM
AAAUAUAAAAGAUAGGAUAUACUAAAAUAAACAUGAGGAUCACCCAUGUAAAAAAAAAAACUCAUGUAGAAGGAUCAAAUAUAAA [ss2 8th] | 33.4 nM
AGGAAACAUGAGGAUCACCCAUGUAGAAAUAUGGGAGGAUAUCGGAAUAAAAUAAAGAAACGAGAAGGCCUAAAAG [59%, Flamingo, 3] | 38.8 nM
